Assay results published in patent publication US20230272048A1.

Columns and labels:
Assay in all cases: capture ELISA on Env of lysed AD8 pseudovirus, % of WT
A329K (HIV-1) = target: A329K (HIV-1)
[1] = target: AD8 Env D279A (HIV-1 AD8, clade B)
[2] = target: AD8 Env D368A (HIV-1 AD8, clade B)
[3] = target: AD8 Env D457A (HIV-1 AD8, clade B)
[4] = target: AD8 Env D474A (HIV-1 AD8, clade B)
[5] = target: AD8 Env E370A (HIV-1 AD8, clade B)
[6] = target: AD8 Env G366A (HIV-1 AD8, clade B)
[7] = target: AD8 Env G471A (HIV-1 AD8, clade B)
[8] = target: AD8 Env G473A (HIV-1 AD8, clade B)
[9] = target: AD8 Env I371A (HIV-1 AD8, clade B)
[10] = target: AD8 Env N332T (HIV-1 AD8, clade B)
[11] = target: AD8 Env T455A (HIV-1 AD8, clade B)
[12] = target: AD8 Env V372A (HIV-1 AD8, clade B)
D185A (HIV-1) = target: D185A (HIV-1)
E87A (HIV-1) = target: E87A (HIV-1)
G472A (HIV-1) = target: G472A (HIV-1)
K121A (HIV-1) = target: K121A (HIV-1)
K282A (HIV-1) = target: K282A (HIV-1)
L179A (HIV-1) = target: L179A (HIV-1)
M373A (HIV-1) = target: M373A (HIV-1)
M475A (HIV-1) = target: M475A (HIV-1)
N197A (HIV-1) = target: N197A (HIV-1)
N262A (HIV-1) = target: N262A (HIV-1)
N276A (HIV-1) = target: N276A (HIV-1)
N283A (HIV-1) = target: N283A (HIV-1)
P369A (HIV-1) = target: P369A (HIV-1)
Q363A (HIV-1) = target: Q363A (HIV-1)
R419A (HIV-1) = target: R419A (HIV-1)
R476A (HIV-1) = target: R476A (HIV-1)
S364A (HIV-1) = target: S364A (HIV-1)
S365A (HIV-1) = target: S365A (HIV-1)
[13] = target: AD8 Env G367A (HIV-1 AD8, clade B)
P313A (HIV-1) = target: P313A (HIV-1)

Substance	Env binding (%) at antibody EC50 (A329K (HIV-1)) [%]	Env binding (%) at antibody EC50 [1] [%]	Env binding (%) at antibody EC50 [2] [%]	Env binding (%) at antibody EC50 [3] [%]	Env binding (%) at antibody EC50 [4] [%]	Env binding (%) at antibody EC50 [5] [%]	Env binding (%) at antibody EC50 [6] [%]	Env binding (%) at antibody EC50 [7] [%]	Env binding (%) at antibody EC50 [8] [%]	Env binding (%) at antibody EC50 [9] [%]	Env binding (%) at antibody EC50 [10] [%]	Env binding (%) at antibody EC50 [11] [%]	Env binding (%) at antibody EC50 (D185A (HIV-1)) [%]	Env binding (%) at antibody EC50 (E87A (HIV-1)) [%]	Env binding (%) at antibody EC50 (G472A (HIV-1)) [%]	Env binding (%) at antibody EC50 (K121A (HIV-1)) [%]	Env binding (%) at antibody EC50 (K282A (HIV-1)) [%]	Env binding (%) at antibody EC50 (L179A (HIV-1)) [%]	Env binding (%) at antibody EC50 (M373A (HIV-1)) [%]	Env binding (%) at antibody EC50 (M475A (HIV-1)) [%]	also measured
PGT121 (antibody)	53	103	79	108	81	74	80	75	80	80	8	92	81	73	78	84	78	87	90	84	Env binding (%) at antibody EC50 [12]: 83%; Env binding (%) at antibody EC50 (N197A (HIV-1)): 65%; Env binding (%) at antibody EC50 (N262A (HIV-1)): 75%; Env binding (%) at antibody EC50 (N276A (HIV-1)): 97%; Env binding (%) at antibody EC50 (N283A (HIV-1)): 75%; Env binding (%) at antibody EC50 (P369A (HIV-1)): 74%; Env binding (%) at antibody EC50 (Q363A (HIV-1)): 72%; Env binding (%) at antibody EC50 (R419A (HIV-1)): 82%; Env binding (%) at antibody EC50 (R476A (HIV-1)): 73%; Env binding (%) at antibody EC50 (S364A (HIV-1)): 82%; Env binding (%) at antibody EC50 (S365A (HIV-1)): 96%
b12 (antibody)	51	86	21	57	70	54	47	88	96	73	66	114	63	99	93	95	96	41	111	103	Env binding (%) at antibody EC50 [13]: 68%; Env binding (%) at antibody EC50 (N197A (HIV-1)): 69%; Env binding (%) at antibody EC50 (N262A (HIV-1)): 52%; Env binding (%) at antibody EC50 (N276A (HIV-1)): 86%; Env binding (%) at antibody EC50 (N283A (HIV-1)): 98%; Env binding (%) at antibody EC50 (P313A (HIV-1)): 95%; Env binding (%) at antibody EC50 (P369A (HIV-1)): 90%; Env binding (%) at antibody EC50 (Q363A (HIV-1)): 77%; Env binding (%) at antibody EC50 (R419A (HIV-1)): 74%; Env binding (%) at antibody EC50 (R476A (HIV-1)): 79%; Env binding (%) at antibody EC50 (S364A (HIV-1)): 110%; Env binding (%) at antibody EC50 (S365A (HIV-1)): 64%
